The values that follow come from PMC9596850, “Tonsillar Microbiome‐Derived Lantibiotics Induce Structural Changes of IL‐6 and IL‐21 Receptors and Modulate Host Immunity” (Advanced Science, 2022).

Common to all, as to conditions: both partners purified
Assay [1] addresses T1, murine IL-6 receptor subunit alpha (mouse, UniProt P22272 20-364).
T1 construct: also called mIL-6Rα; IL-6Rα; source: bought: abcam
T1 sequence (looked up): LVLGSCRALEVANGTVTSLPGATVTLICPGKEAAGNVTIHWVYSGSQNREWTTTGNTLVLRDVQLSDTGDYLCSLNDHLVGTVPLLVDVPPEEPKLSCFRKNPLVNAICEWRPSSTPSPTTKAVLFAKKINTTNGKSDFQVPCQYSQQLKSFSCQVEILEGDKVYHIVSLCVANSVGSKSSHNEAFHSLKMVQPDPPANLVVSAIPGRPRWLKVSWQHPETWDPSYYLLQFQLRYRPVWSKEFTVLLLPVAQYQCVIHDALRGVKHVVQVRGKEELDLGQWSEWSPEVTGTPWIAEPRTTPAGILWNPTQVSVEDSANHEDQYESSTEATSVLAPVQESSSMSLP
The assay can be described thus: SPR; Biacore 8K; receptor immobilised on a CM5 chip by amine coupling, 25 °C, PBS-P running buffer, analyte with 5% DMSO; 1:1 binding model.

Assay [2] concerns the target T2, murine IL-6 receptor subunit alpha (mouse, UniProt P22272 20-364).
T2 construct: also called IL-6Rα; mIL-6R; source: bought: abcam
T2 sequence (looked up): T1 sequence (looked up)
The assay can be described thus: SPR; Biacore 8K; murine IL-6Rα or IL-21R (20 nM) immobilised on a CM5 chip by amine coupling, 25 °C, PBS-P running buffer; analytes with 5% DMSO injected serially (salivaricin B and mutants 12.5-800 µM; mIL-6 0.003125-0.1 µM; mIL-21 0.625-5 nM); KD of salivaricins from a steady-state affinity model.

For another assay, the target named is T3, murine IL-21 receptor (mouse, UniProt Q9JHX3 20-237).
T3 construct: also called mIL-21R; Mouse IL-21R; source: bought: Sino Biological
The description is as above.

For assay [3], the target named is T4, recombinant mouse IL-6 receptor subunit alpha protein with the Fc region of mouse IgG2a (mouse, UniProt P22272 20-364).
T4 construct: also called Fc-IL-6Rα; IL-6Rα; source: bought: abcam
T4 sequence (looked up): T1 sequence (looked up)
The experiment in a line: SPR; Biacore 8K; receptor immobilised on CM5 chip by amine coupling, 25 °C, PBS-P running buffer; analytes with 5% DMSO injected serially; steady-state affinity model.

The target in assay [4] is T5, mouse IL-21 receptor protein with the Fc region of human IgG1 (mouse, UniProt Q9JHX3 20-237).
T5 construct: also called IL-21R-Fc; murine IL-21R; source: bought: Sino Biological
Described as above.

The next assay addresses murine IL-21 (mouse, UniProt Q9ES17 18-146). The experiment in a line: SPR; Biacore 8K; receptor immobilised on a CM5 chip by amine coupling, 25 °C, PBS-P running buffer, analytes with 5% DMSO; steady state affinity model.
Assay [5] has as its target T1, murine IL-6 receptor subunit alpha. Described as above.

B1: murine IL-6 (ligand, mouse, UniProt P08505 25-211, looked up)
chain: FPTSQVRRGDFTEDTTPNRPVYTTSQVGGLITHVLWEIVEMRKELCNGNSDCMNNDDALAENNLKLPEIQRNDGCYQTGYNQEICLLKISSGLLEYHSYLEYMKNNLKDNKKDKARVLQRDTETLIHIFNQEVKDLHKIVLPTPISNALLTDKLESQKEWLRTKTIQFILKSLEEFLKVTLRSTRQT
notes: also called mIL-6
B1 had a Kd in assay [1] of 0.0137 µM.

B2: salivaricin B (peptide)
peptide: GGGVIQTISHECRMNSWQFLFTCCS
notes: salivaricin B, lantibiotic peptide commonly synthesized by Streptococcus salivarius; chemically synthesized; Molecular weight on the synthesis report is 2805.23; also called SalB; source: synthetic peptide (solid-phase synthesis, RoYo Biotech; HPLC purified, purity more than 96%)
For the molecule B2, the Kd in assay [2] came out at 354 µM; with murine IL-21 receptor, 12.6 µM.

B3: salivaricin B (peptide)
peptide: GGGVIQTISHECRMNSWQFLFTCCS
notes: salivaricin B, lantibiotic peptide commonly synthesized by S. salivarius; Chemically synthesized; also called SalB; source: synthetic peptide (solid-phase, RoYo Biotech; HPLC, purity more than 96%)
On to B3, for which the Kd is 160 µM in assay [3] and 10.1 µM in assay [4].

B4: murine IL-21 receptor (receptor)
chain: not shown
notes: also called mIL-21R; source: bought: Sino Biological
Take B4: in the assay with murine IL-21, the Kd was 34.9 pM.

B5: salivaricin A2 (peptide)
peptide: KRGTGWFATITDDCPNSVFVCC
notes: salivaricin A2, lantibiotic peptide commonly synthesized by Streptococcus salivarius; also called SalA2; source: synthetic peptide (solid-phase, RoYo Biotech), HPLC purified, purity more than 96%
B5: the Kd in assay [5] stood at 51.4 µM.
